Laboratory results as given in article PMC11878792, “Structural basis for aminoacylation of cellular modified tRNA^Lys3 by human lysyl-tRNA synthetase” (Nucleic Acids Research, 2025).

Target: T1, human lysyl-tRNA synthetase (h-LysRS), wild type, full length (human, UniProt Q15046 1-597)
T1 construct: Human lysyl-tRNA synthetase (LysRS), full length, wild type; printed residue numbers (NTD 1-65, S207, linker 208-220) fit the cytosolic form; Dimer in the cryo-EM reconstructions; No removal of the His tag is described; also called wt LysRS; wt h-LysRS; source: E. coli BL21 (DE3), purified (PEI and ammonium sulfate precipitation, Ni-NTA, hydroxyapatite)
T1 sequence (Q15046 whole entry): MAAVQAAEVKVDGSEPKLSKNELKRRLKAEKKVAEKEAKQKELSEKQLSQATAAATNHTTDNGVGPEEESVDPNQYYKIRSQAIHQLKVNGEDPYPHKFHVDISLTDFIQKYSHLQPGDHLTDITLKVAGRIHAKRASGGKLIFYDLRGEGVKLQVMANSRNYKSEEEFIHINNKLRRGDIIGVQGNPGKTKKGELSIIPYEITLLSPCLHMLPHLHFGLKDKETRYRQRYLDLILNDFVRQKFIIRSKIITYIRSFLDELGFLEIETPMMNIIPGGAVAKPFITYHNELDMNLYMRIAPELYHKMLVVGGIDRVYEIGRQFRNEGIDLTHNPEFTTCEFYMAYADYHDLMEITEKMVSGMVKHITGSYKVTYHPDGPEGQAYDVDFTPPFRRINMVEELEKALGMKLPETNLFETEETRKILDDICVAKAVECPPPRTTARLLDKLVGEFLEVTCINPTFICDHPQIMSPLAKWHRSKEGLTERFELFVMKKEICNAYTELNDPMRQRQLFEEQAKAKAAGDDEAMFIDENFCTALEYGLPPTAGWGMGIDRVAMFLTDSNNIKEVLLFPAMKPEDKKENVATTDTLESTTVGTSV
Assay: cryo-EM structure; 10 uM h-LysRS-tRNALys3 (cellular modified, 1:1), 100 uM AIMP2-N36, 2.5 mM L-lysine, 2 mM AMP; complex formed 60 min at 4°C; 0.075% CHAPSO added before freezing
Details: both partners purified

B1: AIMP2-N36 peptide (LysRS interacting N-terminal region of AIMP2) (peptide)
peptide: MPMYQVKPYHGGGAPLRVELPTCMYRLPNVHGRSYG
notes: also called AIMP2 peptide; p38; source: synthetic peptide, bought: Biosynth
With B1 the “stoichiometry N” value was 2 copies per LysRS dimer.
